Key:
[1] = system: Int22 (Integrase 1207); assay: cell_activity; details: ~500 bp region template
[2] = system: Int182 (Integrase 1227); assay: cell_activity; details: ~500 bp region template
[3] = system: Int30 (Integrase 436); assay: cell_activity; details: ~500 bp region template
[4] = target: T1, Int94 (Integrase 1219) (UniProt A7GVM1); assay: cell_activity; details: ~500 bp region template
T1 sequence: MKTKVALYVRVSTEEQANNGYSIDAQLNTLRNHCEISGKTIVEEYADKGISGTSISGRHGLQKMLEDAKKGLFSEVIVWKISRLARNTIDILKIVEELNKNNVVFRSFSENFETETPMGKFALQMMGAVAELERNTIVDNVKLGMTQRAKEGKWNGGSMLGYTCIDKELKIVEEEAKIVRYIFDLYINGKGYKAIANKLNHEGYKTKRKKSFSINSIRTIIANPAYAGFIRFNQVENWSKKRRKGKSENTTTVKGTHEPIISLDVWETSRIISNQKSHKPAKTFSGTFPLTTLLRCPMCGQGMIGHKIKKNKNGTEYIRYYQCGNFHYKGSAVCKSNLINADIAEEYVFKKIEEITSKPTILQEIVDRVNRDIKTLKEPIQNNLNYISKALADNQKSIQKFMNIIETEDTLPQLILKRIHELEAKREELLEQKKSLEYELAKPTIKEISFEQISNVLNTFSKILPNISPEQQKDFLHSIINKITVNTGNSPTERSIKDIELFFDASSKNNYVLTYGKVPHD

[5] = system: Int106 (Integrase 1223); assay: cell_activity; details: ~500 bp region template
[6] = system: Int17 (Integrase 1206); assay: cell_activity; details: ~500 bp region template
[7] = system: Int171 (Integrase 450); assay: cell_activity; details: ~500 bp region template
[8] = system: Int138 (Integrase 1116); assay: cell_activity; details: HEK293T, template with ~500 bp region containing attP; attP from Table 2
[9] = system: Int29/Int105 (Integrase 477); assay: cell_activity; details: Int29; same accession as Int105 gave 0.77
[10] = system: Int104 (Integrase 1222); assay: cell_activity; details: ~500 bp region template
[11] = target: T2, Int60 (Integrase 27) (UniProt Q858X3 Q858X3:1-594); assay: cell_activity; ~500 bp region template
T2 sequence: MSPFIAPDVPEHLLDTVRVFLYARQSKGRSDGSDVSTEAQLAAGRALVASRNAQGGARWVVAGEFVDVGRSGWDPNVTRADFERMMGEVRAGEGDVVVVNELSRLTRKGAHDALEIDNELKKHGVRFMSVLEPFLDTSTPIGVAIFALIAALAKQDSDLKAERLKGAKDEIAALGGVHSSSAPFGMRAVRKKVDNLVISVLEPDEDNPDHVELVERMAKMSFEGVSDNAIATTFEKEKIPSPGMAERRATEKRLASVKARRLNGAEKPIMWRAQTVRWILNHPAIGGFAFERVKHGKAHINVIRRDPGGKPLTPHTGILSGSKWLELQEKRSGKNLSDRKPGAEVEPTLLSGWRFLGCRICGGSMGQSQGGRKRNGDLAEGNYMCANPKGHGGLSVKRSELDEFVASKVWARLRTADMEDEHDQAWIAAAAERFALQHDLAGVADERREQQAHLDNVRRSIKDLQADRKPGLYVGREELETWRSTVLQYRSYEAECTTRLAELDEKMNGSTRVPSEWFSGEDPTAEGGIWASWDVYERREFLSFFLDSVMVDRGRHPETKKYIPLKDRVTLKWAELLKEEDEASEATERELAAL

[12] = target: T3, Int103 (Integrase 1221) (UniProt Q928V6 Q928V6:1-452); assay: cell_activity; ~500 bp region template
T3 sequence: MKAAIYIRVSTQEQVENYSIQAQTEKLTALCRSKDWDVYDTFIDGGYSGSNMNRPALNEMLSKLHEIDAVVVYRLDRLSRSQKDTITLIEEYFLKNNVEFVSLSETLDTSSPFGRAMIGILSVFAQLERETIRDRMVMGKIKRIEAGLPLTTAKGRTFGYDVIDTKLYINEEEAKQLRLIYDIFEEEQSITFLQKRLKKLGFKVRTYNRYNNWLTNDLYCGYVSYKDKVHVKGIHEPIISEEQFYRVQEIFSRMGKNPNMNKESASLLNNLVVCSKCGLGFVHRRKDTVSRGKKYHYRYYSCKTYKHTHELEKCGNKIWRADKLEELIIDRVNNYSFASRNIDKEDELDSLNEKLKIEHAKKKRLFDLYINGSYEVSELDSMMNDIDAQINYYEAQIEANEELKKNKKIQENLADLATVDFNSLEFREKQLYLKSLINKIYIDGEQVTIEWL

[13] = target: T4, Int192 (Integrase 165) (UniProt C9DC17 C9DC17:1-507); assay: cell_activity; ~500 bp region template
T4 sequence: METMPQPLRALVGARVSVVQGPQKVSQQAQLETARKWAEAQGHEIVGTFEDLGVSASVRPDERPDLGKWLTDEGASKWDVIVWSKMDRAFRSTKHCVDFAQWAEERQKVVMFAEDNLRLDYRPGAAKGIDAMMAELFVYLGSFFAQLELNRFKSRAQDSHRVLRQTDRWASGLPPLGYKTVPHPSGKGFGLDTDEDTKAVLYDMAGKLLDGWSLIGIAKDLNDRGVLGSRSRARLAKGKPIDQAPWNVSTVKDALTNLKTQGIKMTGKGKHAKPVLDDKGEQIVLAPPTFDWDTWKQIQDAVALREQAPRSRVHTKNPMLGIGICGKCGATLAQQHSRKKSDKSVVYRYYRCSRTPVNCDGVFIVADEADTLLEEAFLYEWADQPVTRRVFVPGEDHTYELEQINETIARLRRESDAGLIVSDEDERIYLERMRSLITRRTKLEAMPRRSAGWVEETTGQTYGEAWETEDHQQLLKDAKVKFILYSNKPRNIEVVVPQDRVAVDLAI

Question: “AAAAGAATCCAAATTATCGTACTTTAACATAGTGAATACTGTCCATCATGTATAAAAGTACG (double strand) [1207 attP]” was tested. Which activity [1] did it give?
Answer: The activity was 0.16 % GFP+.

Question: Which activity [2] does the source give for “AAATATAACCTGTGTATTGAAACAAGGTGCTGATAAAACCCTTTCATAAACACAAGTAAATA (double strand) [1227 attP]” here?
Answer: The activity was 0.22 % GFP+.

Question: With “ATTTTAGGTATATGATTTTGTTTATTAGTGTAAATAACACTATGTACCTAAAAT (double strand) [436 attP]” as the molecule, how does the activity [3] read?
Answer: Its activity is 10.1 % GFP+.

Question: How did the activity [4] turn out when “CAATAACGGTTGTATTTGTAGAACTTGACCAGTTGTTTTAGTAACATAAATACAACTCCGAATA (double strand) [1219 attP]” was run?
Answer: The activity was 0.23 % GFP+.

Question: How did the activity [5] turn out when “CAATGAAAAACTAGGCATGTAGAAGTTGTTTGT (double strand) [1223 attP]” was run?
Answer: The activity was 1.77 % GFP+.

Question: “GTTAGGTGTATATCATACCTAACGCAATTCATTACATCACATATGTTATACACCTACTTTAA (double strand) [1206 attP]” was tested. Which activity [6] did it give?
Answer: The activity was 0.123 % GFP+.

Question: How did the activity [7] turn out when “TATTAGTATAGAAGAAAGCTCTCAGCACACGTGGAGTGTGTTGCTCTCTGCTCGTAAAGCCT (double strand) [450 attP]” was run?
Answer: Its activity is 0.16 % GFP+.

Question: How did the activity [8] turn out when “TGTAGTAAGTATCTTAATATACAGCTTTATCTGTTTTTTAAGATACTTACTACTTT (double strand) [1116 attP]” was run?
Answer: Its activity is 27.6 % GFP+.

Question: “TTCCTCGTTTTCTCTCGTTGGAAGAAGAAGAAACGAGAAA (double strand) [477 attP]” was tested. Which activity [9] did it give?
Answer: The activity was 0.91 % GFP+.

Question: How did the activity [10] turn out when “TTCCTCGTTTTCTCTCGTTGGACGGAAACGAATCGAGAAA (double strand) [1222 attP]” was run?
Answer: Its activity is 0.58 % GFP+.

B1: 27 attP (dsDNA)
DNA 1: GGTGCTGGGTTGTTGTCTCTGGACAGTGATCCATGGGAAACTACTCAGCACC
DNA 2: GGTGCTGAGTAGTTTCCCATGGATCACTGTCCAGAGACAACAACCCAGCACC
Question: For B1, which activity [11] is on record?
Answer: The activity was 0.17 % GFP+.

B2: 1221 attP (dsDNA)
DNA 1: GTTTAGTATCTCGTTATCTCTCGTTGGAGGGAGAAGAAACGGGATACCAAAA
DNA 2: TTTTGGTATCCCGTTTCTTCTCCCTCCAACGAGAGATAACGAGATACTAAAC
Question: Which activity [12] does the source give for B2 here?
Answer: Its activity is 0.22 % GFP+.

B3: 165 attP (dsDNA)
DNA 1: TAGTTTCCAATGTTACAGGAACTGCTGGCAGAATCCAACACATTGGAAGTCG
DNA 2: CGACTTCCAATGTGTTGGATTCTGCCAGCAGTTCCTGTAACATTGGAAACTA
Question: How did the activity [13] turn out when B3 was run?
Answer: The activity was 0.57 % GFP+.

Source: patent US20260055430, “[…] WITH ALTERED […] ACTIVITY” (Flagship Pioneering Innovations VI, LLC, published 2026)
